Reference: patent US20250332265A1, “PSMA TARGETED CONJUGATE COMPOUNDS AND USES THEREOF” (priority 2021, published 2025)

What was measured:
PSMA = biological target: T1, PSMA (Homo sapiens, UniProt Q04609); test: Competition binding studies, Example 2
T1 construct: expressed in transfected cells; host or cells: PC3pip cells (PC3 retrovirally transduced with PSMA), from Dr. Michel Sadelain, MSKCC
Description: PC3pip cells ([…]) was suspended in 200 μL of 50 mM Tris buffer, pH 7.5. The cells were incubated at 37° C. with different concentrations of PSMA-1-MMAE-IR700 or ZJ24 in the presence of 12 nM of 3H-ZJ24 for 1 h. The cells were then washed 3 times with cold PBS and cell-associated radioactivity was measured by scintillation counting. The concentration required to inhibit 50% of the binding (IC50) was determined by GraphPad Prism 3.0. Studies were performed in triplicate.

human liver cathespin = biological target: T2, human liver cathespin (Homo sapiens, UniProt P07858); test: Cathepsin cleavage studies, Example 2; assay type: in vitro ADME; settings: 37° C., HPLC
T2 construct: purchased Anthens Research and Technology, Anthens, GA; host or cells: human liver (tissue-derived enzyme)
Description: (§1) Enzymatic cleavage study of PSMA-1-MMAE-IR700 was performed as previously described. PSMA-1-MMAE-IR700 was incubated with activated human liver cathespin (Anthens Research and Technology, Anthens, GA) at 37° C. At different incubation time, 40 μL of the solution was placed into tubes loaded with 1 μL of 1 mM E64 protease inhibitor. The mixture was vortexed and then stored at −80° C. for future HPLC analysis. Studies were performed in triplicate. In vitro cellular uptake studies cells were plated on coverslips at about 60-70% confluency. Twenty-four hours later, cells were incubated with 50 nM of PSMA-1-MMAE-IR700. After incubation for various times (15 min, 30 min, 1 h and 4 h), cells were washed twice with cold RPMI 1640, fixed with 4% paraformaldehyde and counterstained with 4′,6-diamidino-2-phenylindole (DAPI). Images were taken using a Leica DM4000B fluorescence microscope (Leica Biosystems, Buffalo Gove, IL) at 40×. Blocking experiments were performed by co-incubation of cells with 50 nM of PSMA-1-MMAE-IR700 and 100× of PSMA-1 ligand. Studies were performed in triplicate.

[1] = Stability in PBS, Example 2; assay type: physicochemical; settings: incubated at 37° C.
From the text: To synthesize PSMA-1-MMAE-IR700 (FIG. 6A), we used a self-immolative cathespsin cleavable Vc linker to conjugate MMAE to PSMA-1-Cys-C6-Lys. IR700 was conjugated to the PSMA-1 ligand through reaction of the Lys amine (—NH2) with NHS ester as no IR700 release is required for light activation. […] Degradation of PSMA-1-MMAE-IR700 led to release of free MMAE.

[2] = system: PSMA-positive PC3pip cells; test: In vitro uptake studies, Example 2, PC3pip; assay type: cell-based, human; settings: 50 nM
Description: as §1

[3] = system: PSMA-negative PC3flu cells; test: In vitro uptake studies, Example 2, PC3flu; assay type: cell-based, human; settings: 50 nM
Description: as §1

PC3pip and PC3flu tumors = test: In vivo fluorescence imaging studies, heterotopic tumors; set-up: species or system mice
Description: Animal experiments were approved by the animal care and use committee at Case Western Reserve University (IACUC #150033). Six to eight-week-old male Balb/c athymic nude mice (Jackson Laboratory, Bar Harbor, ME) were implanted subcutaneously with 1×10^6 of PC3pip (right flank) and PC3flu (left flank) cells in 100 μl of matrigel. Animals were ready to use when tumor diameter reached 10 mm, about two weeks. Animals received 100 nmol/kg of PSMA-1-MMAE-IR700 through tail vein injection and were imaged at different time points by Maestro In vivo Image System (Perkin Elmer, Waltham, MI) using the yellow filter set (excitation 575-605 nm, emission 645 nm longpass). During imaging, mice were anesthetized by isoflurane. At 48 h post injection, mice were sacrificed and tissues such as heart, lung, liver, kidneys, stomach, tumors were harvested for ex vivo imaging. Multispectral images were unmixed into their component spectra and average fluorescence signals were quantified by creating regions of interest. Experiments were performed in 5 mice.

[4] = system: orthotopic PC3pipGFP tumors; test: Detection of orthotopic tumor and lymph node metastases; assay type: in vivo, mice; settings: 100 nmol/kg, 1 h post injection
Description: Orthotopic PC3pipGFP prostate cancer models were established as previously described using green fluorescence protein (GFP) transfected PC3pip cells. Mice bearing orthotopic PC3pipGFP tumors were injected with 100 nmol/kg of PSMA-1-MMAE-IR700. Mice were imaged at 1 h post injection by Maestro using the yellow filter set for PSMA-1-MMAE-IR700 and blue filter set for GFP (excitation 445-490 nm, emission 515 nm longpass). Mice were then euthanized and primary tumor was removed to expose lymph nodes. The mice were imaged again. Resected primary tumor and lymph nodes were snap-frozen in optimal cutting temperature (OCT) compound and sectioned. The slides were subjected to hematoxylin and eosin (H&E) staining, and adjacent set of slides were counter stained with DAPI and observed under Leica DM4000B fluorescence microscope at 10× to visualize DAPI, GFP and PSMA-1-MMAE-IR700. Experiments were repeated in three mice.

[5] = Pharmacokinetic studies based on fluorescence; assay type: in vivo, mice; settings: after 4 h post injection almost all drug was cleared
From the text: Prostate cancer is highly heterogeneous, which will affect treatment response, drug resistance and clinical outcome. The use of combination therapies with different mechanisms of action will offer potential advantages over a single therapy and it can be an effective way to deal with the ‘heterogeneity’ of cancer cells. […] The use of anticancer drugs is therefore limited by unwanted side effects. To overcome these problems, we have developed a multifunctional molecule named PSMA-1-MMAE-IR700 that combines chemotherapy, PDT, and imaging in a single molecule that is targeted to PSMA. PSMA is over expressed almost exclusively on prostate cancer (FIG. 6A). MMAE was selected as the chemotherapeutic drug because of its high potency, its wide use in antibody drug conjugates, its synergy with PDT and the fact that we have successfully targeted it to PSMA for the treatment of prostate cancer with a greater therapeutic index when compared to a PSMA-targeted antibody drug conjugate using MMAE. IR700 was selected as the photosensitizer due to its good water-solubility, its high fluorescence quantum yield and singlet oxygen yield, its long wavelength absorption (690 nm), and the fact that a cetuximab-IR700 conjugate (RM-1929) has been approved in Japan for local regional treatment of head and neck cancer. […] The fluorescence from IR700 allowed visualization of uptake studies of PSMA-1-MMAE-IR700. […]

[6] = 4 h post injection, 100 nmol/kg
[7] = 48 h post injection, 100 nmol/kg

T1 sequence (Q04609 whole entry): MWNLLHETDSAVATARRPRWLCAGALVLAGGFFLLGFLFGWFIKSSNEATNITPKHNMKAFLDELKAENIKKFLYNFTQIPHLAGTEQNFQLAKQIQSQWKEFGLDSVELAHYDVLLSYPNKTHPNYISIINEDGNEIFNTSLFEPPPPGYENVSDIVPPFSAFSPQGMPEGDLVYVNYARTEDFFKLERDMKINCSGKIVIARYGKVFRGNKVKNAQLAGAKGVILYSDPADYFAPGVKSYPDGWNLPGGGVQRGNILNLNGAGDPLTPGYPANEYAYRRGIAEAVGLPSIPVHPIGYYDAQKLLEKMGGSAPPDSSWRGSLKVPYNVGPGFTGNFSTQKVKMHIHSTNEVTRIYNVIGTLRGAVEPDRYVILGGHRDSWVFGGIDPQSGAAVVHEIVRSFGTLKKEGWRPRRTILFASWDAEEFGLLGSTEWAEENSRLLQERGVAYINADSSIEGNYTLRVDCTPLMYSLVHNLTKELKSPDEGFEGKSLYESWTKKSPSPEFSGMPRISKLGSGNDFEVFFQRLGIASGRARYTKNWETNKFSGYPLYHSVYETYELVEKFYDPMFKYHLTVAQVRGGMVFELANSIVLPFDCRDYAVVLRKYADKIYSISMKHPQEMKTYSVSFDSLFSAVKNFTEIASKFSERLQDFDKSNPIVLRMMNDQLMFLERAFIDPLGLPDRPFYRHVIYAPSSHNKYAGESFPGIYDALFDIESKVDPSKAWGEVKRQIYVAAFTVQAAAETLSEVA

CC[C@H](C)[C@@H]([C@@H](CC(=O)N1CCC[C@H]1[C@H](OC)[C@@H](C)C(=O)N[C@H](C)[C@@H](O)c1ccccc1)OC)N(C)C(=O)[C@@H](NC(=O)[C@H](C(C)C)N(C)C(=O)OCc1ccc(NC(=O)[C@H](CCCNC(N)=O)NC(=O)[C@@H](NC(=O)CCCCCN2C(=O)CC(SC[C@H](NC(=O)[C@H](CCC(=O)O)NC(=O)[C@H](CCC(=O)O)NC(=O)[C@H](CCC(=O)O)NC(=O)CCCCCNC(=O)[C@H]3CC[C@H](CNC(=O)CC[C@H](NC(=O)N[C@@H](CCC(=O)O)C(=O)O)C(=O)O)CC3)C(=O)NCCCCCC(=O)N[C@@H](CCCCNC(=O)CCCCCNC(=O)OCCCOc3cccc4c5n6c(c34)=NC3=NC(=Nc4c7ccccc7c(n4[Si]6(O[Si](C)(C)CCC[N+](CCCS(=O)(=O)[O-])(CCCS(=O)(=O)O)CCCS(=O)(=O)O)O[Si](C)(C)CCC[N+](CCCS(=O)(=O)[O-])(CCCS(=O)(=O)O)CCCS(=O)(=O)O)N=C4N=C(N=5)c5ccccc54)c4ccccc43)C(N)=O)C2=O)C(C)C)cc1)C(C)C (stereo partly shown) [PSMA-1-MMAE-IR700]
binding relative to ZJ24 (PSMA): 4.4 fold | degradation in the presence of cathepsin (human liver cathespin): degraded rapidly | stability in PBS [1]: stable | fluorescence signal (uptake) in PC3pip cells [2]: observed as early as 15 min | fluorescence signal in PC3pip cells with 100× of PSMA-1 ligand ([2]; co-incubation): completely blocked | fluorescence signal (uptake) in PC3flu cells [3]: no fluorescence signal was observed | time to reach peak uptake in PC3pip tumors (PC3pip and PC3flu tumors; 100 nmol/kg i.v.): 1 h | fluorescence signal PC3pip versus PC3flu tumor (PC3pip and PC3flu tumors; 4 h post injection): 3.8 fold | fluorescence signal in PC3flu tumor (PC3pip and PC3flu tumors; [6]): 5.2±1.5 counts | fluorescence signal in PC3pip tumor (PC3pip and PC3flu tumors; [6]): 19.6±4.4 counts | fluorescence signal PC3pip versus PC3flu tumor (PC3pip and PC3flu tumors; 48 h post injection): 2.9 fold | fluorescence signal in PC3flu tumors (PC3pip and PC3flu tumors; [7]): 3.3±1.3 counts | fluorescence signal in PC3pip tumors (PC3pip and PC3flu tumors; [7]): 9.6±2.1 counts | fluorescent signal in PC3pip tumor versus kidneys, liver and other organs (PC3pip and PC3flu tumors; ex vivo, 48 h post injection): more than 3 fold | fluorescence signal in primary tumor and lymph node histology [4]: only observed in cancer tissues | clearance from the blood [5]: cleared quickly from the blood
